The assay deals with T1, GRP75 (Enzo Life Sciences) (UniProt P38646 47-679, limits assumed).
T1 construct: Purchased protein coated in ELISA
Nature of the assay: ELISA, GRP75 coated, detection with HRP anti-rabbit IgG. How it is done:
Microtiter plates (Costar, Cambridge, MA, USA) were coated with 100 ng of a recombinant ROS1 (37-290 amino acids)-Cκ fusion protein, an irrelevant protein (recombinant PSA (prostate cancer specific antigen; NP_001025218.1))-Cκ fusion protein the synthetic peptide ([…]-[…])-BSA conjugate or GRP75 (Enzo Life Sciences, Farmingdale, NY, USA) dissolved in coating buffer (0.1 M sodium bicarbonate, pH 8.6). After blocking, 3B20-rFc or 3B20-G1K (the first amino acid G of HCDR3 of 3B20 was substituted to K)-rFc fusion proteins were added. The amounts of bound antibodies were determined using a horseradish peroxidase (HRP)-conjugated goat anti-rabbit IgG antibody (Abcam, Cambridge Science Park, Cambridge, UK) and 2,20-azinobis [3-ethylbenzothiazoline-6-sulfonic acid]-diammonium salt (ABTS) substrate solution (Amresco LLC, Solon, OH, USA). All experiments were performed in triplicate.
To test the specificity of 3B20-GlK, a recombinant 3B20-G1K scFv-Cκ fusion protein was prepared. Then ELISA, immunoblot, and immunoprecipitation analyses were performed in parallel with 3B20 for the prepared fusion protein. […] After blocking, the 3B20-rFc fusion protein or 3B20-G1K-rFc fusion protein was added to the well in a concentration of 0 to 2000 ng/ml, and the amount of the fusion protein combined to the well was measured by ELISA using the HRP-conjugated anti-rabbit IgG antibody and ABTS solution. […]

The source of these data is patent publication US12077599 (SEOUL NATIONAL UNIVERSITY R AND DB FOUNDATION NATIONAL …, dated 2024).

T1 sequence (P38646 47-679 limits assumed): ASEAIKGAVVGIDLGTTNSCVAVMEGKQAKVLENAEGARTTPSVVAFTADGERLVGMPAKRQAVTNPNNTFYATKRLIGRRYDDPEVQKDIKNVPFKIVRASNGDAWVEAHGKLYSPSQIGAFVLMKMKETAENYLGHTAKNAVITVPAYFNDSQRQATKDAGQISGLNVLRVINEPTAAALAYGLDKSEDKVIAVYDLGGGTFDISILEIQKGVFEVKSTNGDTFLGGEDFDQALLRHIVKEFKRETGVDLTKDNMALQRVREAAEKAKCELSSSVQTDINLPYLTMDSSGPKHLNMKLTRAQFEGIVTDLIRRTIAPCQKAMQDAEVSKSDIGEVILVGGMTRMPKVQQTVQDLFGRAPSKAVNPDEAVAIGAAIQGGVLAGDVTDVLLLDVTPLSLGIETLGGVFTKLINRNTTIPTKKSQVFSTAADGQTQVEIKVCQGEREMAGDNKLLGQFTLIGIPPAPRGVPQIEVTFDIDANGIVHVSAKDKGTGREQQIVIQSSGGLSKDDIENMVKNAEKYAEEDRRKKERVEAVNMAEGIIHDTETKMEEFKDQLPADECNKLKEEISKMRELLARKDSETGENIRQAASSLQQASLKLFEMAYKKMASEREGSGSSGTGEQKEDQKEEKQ

B1: 3B20-G1K scFv-rFc fusion protein (Fc fusion)
scFv: LTQPSSVSANLGGTVKITCSGGSYGYGWYQQKAPGSAPATVIYDNTNRPSDIPSRFSGSKSGSTGTLTITGVQVEDEAVYYCGSADSSSIATFGAGTTLTVLGQSSRSSGGGGSSGGGGSAVTLDESGGGLQTPGGTLSLVCKASGFSFSDRGMHWMRQAPGKGLEYVGAISGDGYITHYGAAVKGRATISRDNGQSTVRLQLNNLRAEDTATYYCTRKGGGNIDAWGHGTEVIVSSTS
notes: also called 3B20-G1K-rFc; 3B20(scFv)-G1K-rFc fusion protein; not shown: rabbit antibody Fc (rFc)
B1: the binding result was “no binding (tested: 2 µg/mL)”.
